This experiment deals with SARS-CoV-2 S protein RBD (Arg319-Asn536) with a polyhistidine tag at the C-terminus, manufactured by Celltrion (SARS-CoV-2, Wuhan-Hu-1 (YP_009724390.1), UniProt P0DTC2). Put plainly: SPR. The following applies: both partners purified.

As usually defined, the Kd is the equilibrium constant for the complex coming apart. A low value points to a tighter complex.

B1: CT-P59 monoclonal antibody, full-length fully human IgG (antibody, V domains shown)
VH: QITLKESGPTLVKPTQTLTLTCSFSGFSLSTSGVGVGWIRQPPGKALEWLALIDWDDNKYHTTSLKTRLTISKDTSKNQVVLTMTNMDPVDTATYYCARIPGFLRYRNRYYYYGMDVWGQGTTVTVSS
VL: ELVLTQPPSVSAAPGQKVTISCSGSSSNIGNNYVSWYQQLPGTAPKLLIYDNNKRPSGIPDRFSGSKSGTSATLGITGLQTGDEADYYCGTWDSSLSAGVFGGGTELTVL
On to B1, for which binding was put at a Kd of 0.027 nM.

Values taken from article PMC7803729 (Nature Communications, 2021).
